Measured values from article PMC5696618 (Journal of biomolecular screening, 2016).
Like-named read-outs stand apart in the source and are kept apart here.

B1: mouse CNBh domain (residues 552-724) (domain or fragment, UniProt Q60603 552-724, looked up)
chain: TEKVLQICPKDMRADICVHLNRKVFKEHPAFRLASDGCLRALAMEFQTVHCAPGDLIYHAGESVDSLCFVVSGSLEVIQDDEVVAILGKGDVFGDVFWKEATLAQSCANVRALTYCDLHVIKRDALQKVLEFYTAFSHSFSRNLILTYNLRKRIVFRKISDVKREEEERMKRK
B2: mouse EAG1 PAS protein (residues 1-137) (domain or fragment, UniProt Q60603 1-137, looked up)
chain: MTMAGGRRGLVAPQNTFLENIVRRSNDTNFVLGNAQIVDWPIVYSNDGFCKLSGYHRAEVMQKSSACSFMYGELTDKDTVEKVRQTFENYEMNSFEILMYKKNRTPVWFFVKIAPIRNEQDKVVLFLCTFSDITAFK
B3: fluorescein-labeled mEAG1 PAS (F-PAS) (domain or fragment, mouse, UniProt Q60603 1-137, looked up)
chain: B2 chain
modifications: fluorescein (fluorescein 5-maleimide) on accessible cysteine residues; fluorescein to protein molar ratio typically 3 or 4

Columns and labels:
[1] = target: hERG PAS domain (Homo sapiens, UniProt Q12809); test: Thermal shift assay; assay type: binding; details: for Shift in Tm of hERG PAS protein: dose response, compound solubility issues limited this study
Sequence of hERG PAS domain (Q12809 1-135): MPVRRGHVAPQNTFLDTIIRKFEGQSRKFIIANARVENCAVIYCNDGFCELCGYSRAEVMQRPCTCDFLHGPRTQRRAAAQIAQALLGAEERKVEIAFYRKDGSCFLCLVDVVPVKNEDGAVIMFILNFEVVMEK

[2] = target: B2; test: ITC
[3] = target: B2; test: ITC; remark: listed apart in the source
[4] = target: B2; test: ITC; remark: listed apart in the source
[5] = target: B1; test: ITC
[6] = target: B1; test: ITC; remark: listed apart in the source
[7] = target: B1; test: ITC; remark: listed apart in the source
[8] = target: B1; test: fluorescence polarisation
[9] = target: B1; test: fluorescence polarisation; remark: listed apart in the source
[10] = target: B1; test: fluorescence polarisation; remark: listed apart in the source
[11] = target: B1; test: fluorescence polarisation; remark: listed apart in the source
[12] = target: B1; test: fluorescence polarisation; remark: listed apart in the source

Molecule: CC(C)(C)c1cc(S)cc(C(C)(C)C)c1O [ST057196]
Decrease in Tm of hERG PAS protein ([1]; on addition of 50 µM of compound): more than 18 °C

Molecule: Oc1ccc(Cc2ccc(O)cc2)cc1 [Bisphenol F]
Shift in Tm of hERG PAS protein [1]: No shift

Molecule: Oc1ccc(C(c2ccc(O)cc2)(C(F)(F)F)C(F)(F)F)cc1 [Bisphenol AF]
Decrease in Tm of hERG PAS protein ([1]; human, 200 µM, pH 7.5): at least 4.5 °C

Molecule: CC(C)(c1ccc(O)cc1)c1ccc(O)cc1 [Bisphenol A]
Shift in Tm of hERG PAS protein [1]: No shift

Molecule: B1
stoichiometry N [2]: 0.77 | stoichiometry N [3]: 1.2 | stoichiometry N [4]: 1.3 ± 0.27

Molecule: B2
Kd [5]: 3300 nM | Kd [6]: 1100 nM | Kd [7]: 2100 ± 800 nM

Molecule: B3
Kd [8]: 1800 ± 560 nM | Kd [9]: 3100 ± 1100 nM | Kd [10]: 2400 ± 670 nM | Kd [11]: 2300 ± 930 nM | Kd [12]: 3600 ± 1200 nM
